Tests used:
HBEGF locus = assay type: cell-based, human; conditions: dCasX491-KRAB lentiviral library, spacer 34.28, HEK293T, 2 ng/ml diphtheria toxin 48 hours
human B2M locus = assay: Editing (indel rate by NGS) at the B2M locus by catalytically-dead CasX variants (Example 8); assay type: cell-based; conditions: HEK293T, B2M-targeting spacer 7.37, six days after transfection
[1] = test system: endogenous B2M (beta-2-microglobulin) gene; assay: B2M protein expression by HLA antibody flow cytometry, dXR constructs (Example 1, Table 14); assay type: cell-based, human; conditions: for % cells expressing B2M protein: HEK293T cells, % of cells counted that were positive, biological triplicates
Source text: dXR variant plasmids encoding constructs having the configuration of U6-gRNA+Ef1α-NLS-GGS-dCasX491-GGS-KRAB variant-NLS (dCasX491 refers to catalytically-dead CasX 491), were transiently transfected into HEK293T cells in an arrayed 96-well format. These constructs also contained a 2× FLAG sequence, as well as sequences encoding either a gRNA scaffold 174 (SEQ ID NO: 2238) having a spacer (spacer 7.37) targeting the endogenous B2M (beta-2-microglobulin) gene or a non-targeting control (spacer 0.0), which were all cloned upstream of a P2A-puromycin element on the plasmid. Four different effector domains were tested in addition to the “naked” dCasX491 (KRAB variant domains listed in Table 9; spacer sequences listed in Table 10; sequences of additional elements listed in Table 11). The corresponding protein sequences of the dXR molecule are listed in Table 13, and the generic configuration of the dXR molecule is illustrated in FIG. 38. Positive and negative controls based on a catalytically-dead Cas9 nuclease (with or without a ZNF10 repressor) with a B2M-targeting gRNA (spacer 7.14) or a non-targeting gRNA control (spacer 0.0) were included, along with a catalytically-active CasX 491 and gRNA with the same 7.37 and 0.0 spacers. Two days after transfection, total RNA was harvested, and reverse transcribed to generate a cDNA library. Changes in gene expression were calculated by performing qPCR on the targeted gene and a housekeeping gene as reference. Relative gene expression represents the amount of target-specific RNA relative to a reference gene normalized to the non-targeting guide condition for two biological replicates. In addition to the wells used for RNA measurements, a separate set of wells was harvested seven days post-transfection and analyzed for B2M protein expression. Expression of B2M protein was determined by using an antibody that detects the B2M-dependent HLA protein complex on the cell surface. […]

[2] = Editing assays comparing gRNA scaffolds; conditions: compared with gRNA scaffold 174

B1: DOMAIN_26749: KRAB domain derived from the king cobra, Ophiophagus hannah, SEQ ID NO: 57755; top 10 (protein)
chain: STPVTFEDVVVYFTAAEWVHLTNWQRDFYQAVMMETYELVASVAGDGVPMAEDEEGGVERPVWQYIPRGKRRRKTPQPRAD
modifications: Ophiophagus hannah
- log2 (fold change) in abundance of the KRAB domain before and after selection (HBEGF locus): highest log (fold change)

B2: dCasX668: catalytically-dead CasX 668, SEQ ID NO: 59355 (protein)
chain: QEIKRINKIRRRLVKDSNTKKAGKTRGPMKTLLVRVMTPDLRERLENLRKKPENIPQPISNTSRANLNKLLTDYTEMKKAILHVYWEEFQKDPVGLMSRVAQPASKKIDQNKLKPEMDEKGNLTTAGFACSQCGQPLFVYKLEQVSEKGKAYTNYFGRCNVAEHEKLILLAQLKPEKDSDEAVTYSLGKFGQRALDFYSIHVTKESTHPVKPLAQIAGNRYASSPVGKALSDACMGTIASFLSKYQDIIIEHQKVVKGNQKRLESLRELAGKENLEYPSVTLPPQPHTKEGVDAYNEVIARVRMWVNLNLWQKLKLSRDDAKPLLRLKGFPSFPLVERQANEVDWWDMVCNVKKLINEKKEDGKVFWQNLAGYKRQEALRPYLSSEEDRKKGKKFARYQLGDLLLHLEKKHGEDWGKVYDEAWERIDKKVEGLSKHIKLEEERRSEDAQSKAALTDWLRAKASFVIEGLKEADKDEFCRCELKLQKWYGDLRGKPFAIEAENSILDISGFSKQYNCAFIWQKDGVKKLNLYLIINYFKGGKLRFKKIKPEAFEANRFYTVINKKSGEIVPMEVNFNFDDPNLIILPLAFGKRQGREFIWNDLLSLETGSLKLANGRVIEKTLYNRRTRQDEPALFVALTFERREVLDSSNIKPMNLIGVARGENIPAVIALTDPEGCPLSRFKDSLGNPTHILRIGESYKEKQRTIQAKKEVEQRRAGGYSRKYASKAKNLADDMVRNTARDLLYYAVTQDAMLIFANLSRGFGRQGKRTFMAERQYTRMEDWLTAKLAYEGLPSKTYLSKTLAQYTSKTCSNCGFTITSADYDRVLEKLKKTATGWMTTINGKELKVEGQITYYNRYKRQNVVKDLSVELDRLSEESVNNDISSWTKGRSGEALSLLKKRFSHRPVQEKFVCLNCGFETHAAEQAALNIARSWLFLRSQEYKKYQTNKTTGNTDKRAFVETWQSFYRKKLKEVWKPAV
- percent editing at the B2M locus measured as indel rate by NGS (human B2M locus): did not exhibit editing

B3: dCasX676: catalytically-dead CasX 676, SEQ ID NO: 59357 (protein)
chain: QEIKRINKIRRRLVKDSNTKKAGKTRGPMKTLLVRVMTPDLRERLENLRKKPENIPQPISNTSRANLNKLLTDYTEMKKAILHVYWEEFQKDPVGLMSRVAQPASKKIDQNKLKPEMDEKGNLTTAGFACSQCGQPLFVYKLEQVSEKGKAYTNYFGRCNVAEHEKLIKLAQLKPEKDSDEAVTYSLGKFGQRALDFYSIHVTKESTHPVKPLAQIAGNRYASSPVGKALSDACMGTIASFLSKYQDIIIEHQKVVKGNQKRLESLRELAGKENLEYPSVTLPPQPHTKEGVDAYNEVIARVRMWVNLNLWQKLKLSRDDAKPLLRLKGFPSFPLVERQANEVDWWDMVCNVKKLINEKKEDGKVFWQNLAGYKRQEALRPYLSSEEDRKKGKKFARYQLGDLLLHLEKKHGEDWGKVYDEAWERIDKKVEGLSKHIKLEEERRSEDAQSKAALTDWLRAKASFVIEGLKEADKDEFCRCELKLQKWYGDLRGKPFAIEAENSILDISGFSKQYNCAFIWQKDGVKKLNLYLIINYFKGGKLRFKKIKPEAFEANRFYTVINKKSGEIVPMEVNFNFDDPNLIILPLAFGKRQGREFIWNDLLSLETGSLKLANGRVIEKTLYNRRTRQDEPALFVALTFERREVLDSSNIKPMNLIGVARGENIPAVIALTDPEGCPLSRFKDSLGNPTHILRIGESYKEKQRTIQAKKEVEQRRAGGYSRKYASKAKNLADDMVRNTARDLLYYAVTQDAMLIFANLSRGFGRQGKRTFMAERQYTRMEDWLTAKLAYEGLPSKTYLSKTLAQYTSKTCSNCGFTITSADYDRVLEKLKKTATGWMTTINGKELKVEGQITYYNRYKRQNVVKDLSVELDRLSEESVNNDISSWTKGRSGEALSLLKKRFSHRPVQEKFVCLNCGFETHAAEQAALNIARSWLFLRSQEYKKYQTNKTTGNTDKRAFVETWQSFYRKKLKEVWKPAV
- percent editing at the B2M locus measured as indel rate by NGS (human B2M locus): did not exhibit editing

B4: dCasX491: catalytically-dead CasX 491, SEQ ID NO: 18 (protein)
chain: QEIKRINKIRRRLVKDSNTKKAGKTGPMKTLLVRVMTPDLRERLENLRKKPENIPQPISNTSRANLNKLLTDYTEMKKAILHVYWEEFQKDPVGLMSRVAQPASKKIDQNKLKPEMDEKGNLTTAGFACSQCGQPLFVYKLEQVSEKGKAYTNYFGRCNVAEHEKLILLAQLKPEKDSDEAVTYSLGKFGQRALDFYSIHVTKESTHPVKPLAQIAGNRYASGPVGKALSDACMGTIASFLSKYQDIIIEHQKVVKGNQKRLESLRELAGKENLEYPSVTLPPQPHTKEGVDAYNEVIARVRMWVNLNLWQKLKLSRDDAKPLLRLKGFPSFPLVERQANEVDWWDMVCNVKKLINEKKEDGKVFWQNLAGYKRQEALRPYLSSEEDRKKGKKFARYQLGDLLLHLEKKHGEDWGKVYDEAWERIDKKVEGLSKHIKLEEERRSEDAQSKAALTDWLRAKASFVIEGLKEADKDEFCRCELKLQKWYGDLRGKPFAIEAENSILDISGFSKQYNCAFIWQKDGVKKLNLYLIINYFKGGKLRFKKIKPEAFEANRFYTVINKKSGEIVPMEVNFNFDDPNLIILPLAFGKRQGREFIWNDLLSLETGSLKLANGRVIEKTLYNRRTRQDEPALFVALTFERREVLDSSNIKPMNLIGVARGENIPAVIALTDPEGCPLSRFKDSLGNPTHILRIGESYKEKQRTIQAKKEVEQRRAGGYSRKYASKAKNLADDMVRNTARDLLYYAVTQDAMLIFANLSRGFGRQGKRTFMAERQYTRMEDWLTAKLAYEGLSKTYLSKTLAQYTSKTCSNCGFTITSADYDRVLEKLKKTATGWMTTINGKELKVEGQITYYNRYKRQNVVKDLSVELDRLSEESVNNDISSWTKGRSGEALSLLKKRFSHRPVQEKFVCLNCGFETHAAEQAALNIARSWLFLRSQEYKKYQTNKTTGNTDKRAFVETWQSFYRKKLKEVWKPAV
- % cells expressing B2M protein ([1]; B2M-targeting spacer 7.37): 85.70%
- cells negative for the B2M protein ([1]; HEK293T, seven days post-transfection, B2M-targeting gRNA, HLA flow cytometry): ~10%
- % cells expressing B2M protein ([1]; non-targeting spacer 0.0): 95.90%
- percent editing at the B2M locus measured as indel rate by NGS (human B2M locus): did not exhibit editing

B5: 316 scaffold: chimeric RNA scaffold: scaffold 235 with extended stem loop of scaffold 174, SEQ ID NO: 59352, 89 nucleotides (nucleic acid)
guide: ACUGGCGCUUCUAUCUGAUUACUCUGAGCGCCAUCACCAGCGACUAUGUCGUAGUGGGUAAAGCUCCCUCUUCGGAGGGAGCAUCAGAG
modifications: listed as RNA, further chemistry not given here
- performance in editing assays [2]: comparably or more favorably than gRNA scaffold 174

B6: dCasX527: catalytically-dead CasX 527, SEQ ID NO: 24 (protein)
chain: QEIKRINKIRRRLVKDSNTKKAGKTRGPMKTLLVRVMTPDLRERLENLRKKPENIPQPISNTSRANLNKLLTDYTEMKKAILHVYWEEFQKDPVGLMSRVAQPASKKIDQNKLKPEMDEKGNLTTAGFACSQCGQPLFVYKLEQVSEKGKAYTNYFGRCNVAEHEKLILLAQLKPEKDSDEAVTYSLGKFGQRALDFYSIHVTKESTHPVKPLAQIAGNRYASGPVGKALSDACMGTIASFLSKYQDIIIEHQKVVKGNQKRLESLRELAGKENLEYPSVTLPPQPHTKEGVDAYNEVIARVRMWVNLNLWQKLKLSRDDAKPLLRLKGFPSFPLVERQANEVDWWDMVCNVKKLINEKKEDGKVFWQNLAGYKRQEALRPYLSSEEDRKKGKKFARYQLGDLLLHLEKKHGEDWGKVYDEAWERIDKKVEGLSKHIKLEEERRSEDAQSKAALTDWLRAKASFVIEGLKEADKDEFCRCELKLQKWYGDLRGKPFAIEAENSILDISGFSKQYNCAFIWQKDGVKKLNLYLIINYFKGGKLRFKKIKPEAFEANRFYTVINKKSGEIVPMEVNFNFDDPNLIILPLAFGKRQGREFIWNDLLSLETGSLKLANGRVIEKTLYNRRTRQDEPALFVALTFERREVLDSSNIKPMNLIGVARGENIPAVIALTDPEGCPLSRFKDSLGNPTHILRIGESYKEKQRTIQAKKEVEQRRAGGYSRKYASKAKNLADDMVRNTARDLLYYAVTQDAMLIFANLSRGFGRQGKRTFMAERQYTRMEDWLTAKLAYEGLSKTYLSKTLAQYTSKTCSNCGFTITSADYDRVLEKLKKTATGWMTTINGKELKVEGQITYYNRYKRQNVVKDLSVELDRLSEESVNNDISSWTKGRSGEALSLLKKRFSHRPVQEKFVCLNCGFETHAAEQAALNIARSWLFLRSQEYKKYQTNKTTGNTDKRAFVETWQSFYRKKLKEVWKPAV
- percent editing at the B2M locus measured as indel rate by NGS (human B2M locus): did not exhibit editing

Reference: patent publication US20240392271A1, “ENGINEERED CASX REPRESSOR SYSTEMS” (Scribe Therapeutics Inc., priority 2021, published 2024)
